Reference: US20140249468A1 (UNITED STATES OF AMERICA AS REPRESENTED BY THE SECRETARY …, published 2014)
Square brackets hold non-standard residues; d marks the D form. Ends that are not written are not given here.

T1: APMA-activated recombinant human MMP-2 (human, UniProt P08253 110-660, limits assumed)
T1 sequence (looked up): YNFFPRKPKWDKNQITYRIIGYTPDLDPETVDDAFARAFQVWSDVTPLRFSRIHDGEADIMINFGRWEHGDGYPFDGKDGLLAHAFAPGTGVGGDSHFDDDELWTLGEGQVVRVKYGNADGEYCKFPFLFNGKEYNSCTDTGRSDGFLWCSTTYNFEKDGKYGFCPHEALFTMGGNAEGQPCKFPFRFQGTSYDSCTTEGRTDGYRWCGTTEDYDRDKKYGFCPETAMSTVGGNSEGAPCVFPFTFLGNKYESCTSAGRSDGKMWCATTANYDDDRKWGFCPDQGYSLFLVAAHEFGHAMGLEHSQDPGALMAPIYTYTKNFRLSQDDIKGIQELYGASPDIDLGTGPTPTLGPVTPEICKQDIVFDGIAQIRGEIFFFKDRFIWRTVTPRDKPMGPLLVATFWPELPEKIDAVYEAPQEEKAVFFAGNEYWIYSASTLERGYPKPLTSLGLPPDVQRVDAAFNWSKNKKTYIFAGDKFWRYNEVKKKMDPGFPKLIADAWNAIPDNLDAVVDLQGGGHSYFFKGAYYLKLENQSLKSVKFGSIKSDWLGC

B1: compound 4 (MMP-P-RGD) (peptide)
peptide 1: {Cy5.5}-GPLGVRGK(BHQ‑3)GG
peptide 2: RGDYK
modifications: not fully specified (some residues); also: chain 1 C-terminal carboxyl conjugated to chain 2, c(RGDyK), linkage site not given here, head-to-tail to a chain's N/C-terminus
B2: compound 7 (peptide)
peptide: cyclo(RGD[dY]K(CW800))
notes: Made by conjugating CW800 NHS ester to c(RGDyK); also called CW800-labelled c(RGDyK)

Columns and labels:
[1] = biological target: T1, APMA-activated recombinant human MMP-2; assay: cell-based or functional assay
[2] = biological target: T2, ανβ3 integrin receptor on U87MG human glioma cells (human, UniProt P06756 31-1048; P05106 27-788); assay: competitive cell-binding assay on U87MG cells, displacement of 125I-echistatin
T2 construct: whole, on cells; Endogenous receptor on U87MG cells; also called ανβ3 receptor
T2 sequence (P06756 31-1048, chain 1 of 2): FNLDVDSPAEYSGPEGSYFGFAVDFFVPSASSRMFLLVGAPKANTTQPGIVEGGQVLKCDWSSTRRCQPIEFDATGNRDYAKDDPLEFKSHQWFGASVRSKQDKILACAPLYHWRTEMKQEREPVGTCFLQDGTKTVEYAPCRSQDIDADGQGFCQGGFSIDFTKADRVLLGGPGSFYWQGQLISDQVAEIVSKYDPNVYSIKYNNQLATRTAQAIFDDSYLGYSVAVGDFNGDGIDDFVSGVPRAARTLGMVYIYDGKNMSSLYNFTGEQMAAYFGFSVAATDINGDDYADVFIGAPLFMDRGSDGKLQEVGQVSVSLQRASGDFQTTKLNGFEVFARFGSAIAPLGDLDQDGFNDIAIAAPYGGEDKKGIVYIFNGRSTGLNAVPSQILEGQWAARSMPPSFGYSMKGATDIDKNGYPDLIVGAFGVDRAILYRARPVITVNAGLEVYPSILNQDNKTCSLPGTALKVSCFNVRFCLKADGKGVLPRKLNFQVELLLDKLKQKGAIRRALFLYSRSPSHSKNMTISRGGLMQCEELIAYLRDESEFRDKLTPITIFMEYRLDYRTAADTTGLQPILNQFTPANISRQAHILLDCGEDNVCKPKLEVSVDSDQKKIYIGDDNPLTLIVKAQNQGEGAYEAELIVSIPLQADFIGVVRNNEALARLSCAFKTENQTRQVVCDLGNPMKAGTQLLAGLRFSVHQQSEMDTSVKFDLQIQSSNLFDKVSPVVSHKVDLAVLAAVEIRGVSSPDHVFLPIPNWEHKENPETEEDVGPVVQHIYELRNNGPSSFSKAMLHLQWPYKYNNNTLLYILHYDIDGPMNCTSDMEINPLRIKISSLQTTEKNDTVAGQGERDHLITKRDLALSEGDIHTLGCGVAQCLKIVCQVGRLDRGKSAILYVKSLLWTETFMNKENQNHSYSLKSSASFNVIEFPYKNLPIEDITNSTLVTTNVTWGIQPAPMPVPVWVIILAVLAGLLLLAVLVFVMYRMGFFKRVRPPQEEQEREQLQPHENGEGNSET
T2 sequence (P05106 27-788, chain 2 of 2): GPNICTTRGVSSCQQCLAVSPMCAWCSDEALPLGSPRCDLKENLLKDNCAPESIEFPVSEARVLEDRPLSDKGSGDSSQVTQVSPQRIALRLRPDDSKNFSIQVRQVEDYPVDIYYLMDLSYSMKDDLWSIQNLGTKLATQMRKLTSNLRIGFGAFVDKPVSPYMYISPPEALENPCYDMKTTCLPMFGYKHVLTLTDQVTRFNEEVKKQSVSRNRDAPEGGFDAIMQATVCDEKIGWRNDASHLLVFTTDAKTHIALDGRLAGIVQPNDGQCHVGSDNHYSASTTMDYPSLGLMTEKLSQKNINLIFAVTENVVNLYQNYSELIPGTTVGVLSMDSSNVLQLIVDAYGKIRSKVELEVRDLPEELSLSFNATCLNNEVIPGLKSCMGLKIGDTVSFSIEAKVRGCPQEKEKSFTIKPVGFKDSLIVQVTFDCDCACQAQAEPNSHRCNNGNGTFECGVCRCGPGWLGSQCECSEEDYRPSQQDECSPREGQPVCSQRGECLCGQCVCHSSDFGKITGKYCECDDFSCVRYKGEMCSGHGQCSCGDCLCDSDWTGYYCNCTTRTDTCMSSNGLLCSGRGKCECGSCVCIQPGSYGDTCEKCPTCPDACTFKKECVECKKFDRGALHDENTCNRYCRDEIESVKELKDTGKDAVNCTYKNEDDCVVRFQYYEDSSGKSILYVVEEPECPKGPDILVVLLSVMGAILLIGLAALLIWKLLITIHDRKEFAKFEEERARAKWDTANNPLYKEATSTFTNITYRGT
Protocol: Briefly, the U87MG cell line was cultured in DMEM medium containing 10% (v/v) fetal bovine serum supplemented with penicillin (100 μg/ml), streptomycin (100 μg/ml), non-essential amino acids (100 mM) and sodium pyruvate (1 mM) at 37° C. with 5% CO₂. […] After incubation, the plate was washed three times with PBS containing 0.1% BSA, and the radioactivity was measured by γ-counting. The IC₅₀ values were calculated by nonlinear regression analysis.

| recovery of the NIR fluorescence signal [1] [fold] | IC50 [2] [nM] | Binder |
| --- | --- | --- |
| > 20 |  | B1 |
|  | 456 | B2 |
